Measurements taken from paper PMC2568893, “Role of αBI5 and αBT162 residues in subunit interaction during oligomerization of αB-crystallin” (Molecular Vision, 2008).

Key:
[1] = target: αBT162C mutant of human αB-crystallin (human) (UniProt P02511); assay: FRET or BRET; amine-labelled proteins: Alexa Fluor 350 TFP ester (donor) and Alexa Fluor 488 TFP ester (acceptor); 50 µg of each labelled protein mixed at 37 °C; subunit exchange rate from Ft/F0
[2] = target: the molecule itself; assay: SEC-MALS; TSK G5000PWXL column, 100 µg protein, 50 mM phosphate, 150 mM NaCl, 0.02% sodium azide, pH 7.2, with the reducing agent TCEP; without it both Cys mutants formed larger oligomers

rate of subunit exchange [1] [s⁻¹] | subunit interaction rate [1] [s⁻¹] | Binder | stoichiometry N [2] [subunits]
0.000655 | 6.5e-05 | αBI5C mutant of human αB-crystallin (natural protein, UniProt P02511 1-175, looked up, FRET assays only: Alexa Fluor 488 or Alexa Fluor 555 C5-maleimide on the cysteine (thiol-labelled), or Alexa Fluor 350 carboxylic acid TFP ester on amines (amine-labelled, donor); unlabelled in the other experiments, human αB-crystallin (HspB5), 175 amino acids, with I5C; cDNA in pET-23d(+); Homo-oligomer, on average 35 subunits when reduced; also called αB5C) MDIACHHPWIRRPFFPFHSPSRLFDQFFGEHLLESDLFPTSTSLSPFYLRPPSFLRAPSWFDTGLSEMRLEKDRFSVNLDVKHFSPEELKVKVLGDVIEVHGKHEERQDEHGFISREFHRKYRIPADVDPLTITSSLSSDGVLTVNGPRKQVSGPERTIPITREEKPAVTAAPKK | 35
 |  | αBT162C mutant of human αB-crystallin (natural protein, UniProt P02511 1-175, looked up, FRET assays only: Alexa Fluor 488 or Alexa Fluor 555 C5-maleimide on the cysteine (thiol-labelled), or Alexa Fluor 488 carboxylic acid TFP ester on amines (amine-labelled, acceptor); unlabelled in the other experiments, human αB-crystallin (HspB5), 175 amino acids, with T162C; cDNA in pET-23d(+); Homo-oligomer, on average 35 subunits when reduced; also called αB162C) MDIAIHHPWIRRPFFPFHSPSRLFDQFFGEHLLESDLFPTSTSLSPFYLRPPSFLRAPSWFDTGLSEMRLEKDRFSVNLDVKHFSPEELKVKVLGDVIEVHGKHEERQDEHGFISREFHRKYRIPADVDPLTITSSLSSDGVLTVNGPRKQVSGPERTIPICREEKPAVTAAPKK | 35
